Measurements taken from patent US20230241168A1 (ALPINE IMMUNE SCIENCES, published 2023).

T1: recombinant human APRIL (human, UniProt O75888 105-250, limits assumed)
T1 sequence (looked up): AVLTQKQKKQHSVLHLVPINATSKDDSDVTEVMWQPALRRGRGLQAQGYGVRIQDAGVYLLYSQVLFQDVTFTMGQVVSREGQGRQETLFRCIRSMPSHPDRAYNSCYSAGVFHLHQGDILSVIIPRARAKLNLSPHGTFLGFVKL

T2: human CD80 (human, UniProt P33681 35-288)
T2 sequence (looked up): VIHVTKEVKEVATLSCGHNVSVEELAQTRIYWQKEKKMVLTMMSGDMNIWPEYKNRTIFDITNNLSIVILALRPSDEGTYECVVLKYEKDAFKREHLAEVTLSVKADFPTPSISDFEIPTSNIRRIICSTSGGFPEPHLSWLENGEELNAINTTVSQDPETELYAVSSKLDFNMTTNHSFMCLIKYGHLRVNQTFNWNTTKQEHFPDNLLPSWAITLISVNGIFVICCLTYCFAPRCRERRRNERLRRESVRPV

T3: human CD86 (human, UniProt P42081 24-329)
T3 sequence (looked up): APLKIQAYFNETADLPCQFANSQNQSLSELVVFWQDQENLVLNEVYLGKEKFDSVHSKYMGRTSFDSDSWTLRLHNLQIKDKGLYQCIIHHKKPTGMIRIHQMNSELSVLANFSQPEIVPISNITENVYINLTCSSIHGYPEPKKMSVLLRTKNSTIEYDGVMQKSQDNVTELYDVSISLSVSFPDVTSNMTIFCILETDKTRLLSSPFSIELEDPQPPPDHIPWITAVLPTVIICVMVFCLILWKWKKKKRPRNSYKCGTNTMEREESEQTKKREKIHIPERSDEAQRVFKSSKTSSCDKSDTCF


Key:
Test in all cases: cell-based or functional assay
recombinant human BAFF = recombinant human BAFF (human, UniProt Q9Y275 134-285)
recombinant human APRIL = molecular target: T1, recombinant human APRIL
human CD80 = molecular target: T2, human CD80
human CD86 = molecular target: T3, human CD86

Row | Binder | IC50 (nM) BAFF (recombinant human BAFF) | IC50 (nM) APRIL (recombinant human APRIL) | IC50 BAFF (Δ Parental vTD) (recombinant human BAFF) | IC50 APRIL (Δ Parental vTD) (recombinant human APRIL) | CD80 IC50 (human CD80) | CD86 IC50 (human CD86) | CD80 IC50 (Δ Parental CTLA-4) (human CD80) | CD86 IC50 (Δ Parental CTLA-4) (human CD86)
1 | TACI 542 GSG4S Fc (G4S)4 (CTLA-4 186) (Fc fusion) SLSCRKEEGKFYDHLLQDCISCASICGQHPKQCAYFCENKLRSGSGGGGSEPKSSDKTHTCPPCPAPEAEGAPSVFLFPPKPKDTLMISRTPEVTCVVVDVSHEDPEVKFNWYVDGVEVHNAKTKPREEQYNSTYRVVSVLTVLHQDWLNGKEYKCKVSNKALPAPIEKTISKAKGQPREPQVYTLPPSRDELTKNQVSLTCLVKGFYPSDIAVEWESNGQPENNYKTTPPVLDSDGSFFLYSKLTVDKSRWQQGNVFSCSVMHEALHNHYTQKSLSLSPGGGGGSGGGGSGGGGSGGGGSKAMHVAQPAVVLASSRGIASFVCEYASPWKATEVRVTVLRQADSQVTEVCAATYMMGNELTFLDDSICTGTSSGNQVNLTIQGLRAMDTGLYICKVEQMYPPPYLLGIGNGTQIYVIDPEPCPDSD | 0.179 nM | 1.2 nM |  |  |  |  |  | 
2 | BCMA 381 GSG4S-Fc-(G4S)4-CTLA-4 186 (Fc fusion) LQMAGQCSQNEYFDALLYACIPCQLRCSSNTPPLTCQQYCNASVTNSVKGTNAGSGGGGSEPKSSDKTHTCPPCPAPEAEGAPSVFLFPPKPKDTLMISRTPEVTCVVVDVSHEDPEVKFNWYVDGVEVHNAKTKPREEQYNSTYRVVSVLTVLHQDWLNGKEYKCKVSNKALPAPIEKTISKAKGQPREPQVYTLPPSRDELTKNQVSLTCLVKGFYPSDIAVEWESNGQPENNYKTTPPVLDSDGSFFLYSKLTVDKSRWQQGNVFSCSVMHEALHNHYTQKSLSLSPGGGGGSGGGGSGGGGSGGGGSKAMHVAQPAVVLASSRGIASFVCEYASPWKATEVRVTVLRQADSQVTEVCAATYMMGNELTFLDDSICTGTSSGNQVNLTIQGLRAMDTGLYICKVEQMYPPPYLLGIGNGTQIYVIDPEPCPDSD | 0.0617 nM | 0.876 nM |  |  |  |  |  | 
3 | BCMA 357 GSG4S Fc (G4S)3 CTLA-4 92 (Fc fusion) LQMAGQCSQNEYFDSLLYACIPCQLRCSSNTPPLTCQRYCNASVTNSVKGTNAGSGGGGSEPKSSDKTHTCPPCPAPEAEGAPSVFLFPPKPKDTLMISRTPEVTCVVVDVSHEDPEVKFNWYVDGVEVHNAKTKPREEQYNSTYRVVSVLTVLHQDWLNGKEYKCKVSNKALPAPIEKTISKAKGQPREPQVYTLPPSRDELTKNQVSLTCLVKGFYPSDIAVEWESNGQPENNYKTTPPVLDSDGSFFLYSKLTVDKSRWQQGNVFSCSVMHEALHNHYTQKSLSLSPGGGGGSGGGGSGGGGSGGGGSKAMHVAQPAVVLASSRGIASFVCEYASPWKATEVRVTVLRQADSQVTEVCAATYMMGSELTFPDDSICTGTSSGNQVNLTIRGLRAMDTGLYICKVEQMYPPPYLLGIGNGTQIYVIDPEPCPDSD | 0.415 nM | 0.582 nM | 0.4 ratio | 0.6 ratio |  |  |  | 
4 | CTLA-4 92 GSG4S Fc (G4S)2 BCMA 357 (Fc fusion) KAMHVAQPAVVLASSRGIASFVCEYASPWKATEVRVTVLRQADSQVTEVCAATYMMGSELTFPDDSICTGTSSGNQVNLTIRGLRAMDTGLYICKVEQMYPPPYLLGIGNGTQIYVIDPEPCPDSDGSGGGGSEPKSSDKTHTCPPCPAPEAEGAPSVFLFPPKPKDTLMISRTPEVTCVVVDVSHEDPEVKFNWYVDGVEVHNAKTKPREEQYNSTYRVVSVLTVLHQDWLNGKEYKCKVSNKALPAPIEKTISKAKGQPREPQVYTLPPSRDELTKNQVSLTCLVKGFYPSDIAVEWESNGQPENNYKTTPPVLDSDGSFFLYSKLTVDKSRWQQGNVFSCSVMHEALHNHYTQKSLSLSPGGGGGSGGGGSLQMAGQCSQNEYFDSLLYACIPCQLRCSSNTPPLTCQRYCNASVTNSVKGTNA | 6.27 nM | 0.683 nM | 1.2 ratio | 1 ratio | 22.7 nM | 16.1 nM |  | 
5 | CTLA-4 92 GSG4S Fc (G4S)3 BCMA 357 (Fc fusion) KAMHVAQPAVVLASSRGIASFVCEYASPWKATEVRVTVLRQADSQVTEVCAATYMMGSELTFPDDSICTGTSSGNQVNLTIRGLRAMDTGLYICKVEQMYPPPYLLGIGNGTQIYVIDPEPCPDSDGSGGGGSEPKSSDKTHTCPPCPAPEAEGAPSVFLFPPKPKDTLMISRTPEVTCVVVDVSHEDPEVKFNWYVDGVEVHNAKTKPREEQYNSTYRVVSVLTVLHQDWLNGKEYKCKVSNKALPAPIEKTISKAKGQPREPQVYTLPPSRDELTKNQVSLTCLVKGFYPSDIAVEWESNGQPENNYKTTPPVLDSDGSFFLYSKLTVDKSRWQQGNVFSCSVMHEALHNHYTQKSLSLSPGGGGGSGGGGSGGGGSLQMAGQCSQNEYFDSLLYACIPCQLRCSSNTPPLTCQRYCNASVTNSVKGTNA | 0.548 nM | 0.55 nM | 0.6 ratio | 0.5 ratio |  |  |  | 
6 | CTLA-4 113 GSG4S Fc (G4S)4 TACI 688 (29-110) (Fc fusion) KAMHVAQPAVVFASSHGIASFVCEYASPWKATEVRVTVLRQADSQVTEVCAATYMTGNELTFLDDSICTGTSSGNQVNLTIQGLRAMDTGLYICKVEQMYPPPYLLGIGNGTQIYVIDPEPCPDSDGSGGGGSEPKSSDKTHTCPPCPAPEAEGAPSVFLFPPKPKDTLMISRTPEVTCVVVDVSHEDPEVKFNWYVDGVEVHNAKTKPREEQYNSTYRVVSVLTVLHQDWLNGKEYKCKVSNKALPAPIEKTISKAKGQPREPQVYTLPPSRDELTKNQVSLTCLVKGFYPSDIAVEWESNGQPENNYKTTPPVLDSDGSFFLYSKLTVDKSRWQQGNVFSCSVMHEALHNHYTQKSLSLSPGGGGGSGGGGSGGGGSGGGGSVAMRSCPEEQYWDPLLGTCMSCKTICNHQSQRTCAAFCRSLSCRKEQGKFYDHLLGDCISCASICGQHPKQCAYFCENKLRS | 0.566 nM | 8.25 nM | 0.4 ratio | 1.4 ratio |  |  |  | 
7 | CTLA-4 92 (G4S)4 BCMA 357 GSG4S Fc (Fc fusion) KAMHVAQPAVVLASSRGIASFVCEYASPWKATEVRVTVLRQADSQVTEVCAATYMMGSELTFPDDSICTGTSSGNQVNLTIRGLRAMDTGLYICKVEQMYPPPYLLGIGNGTQIYVIDPEPCPDSDGGGGSGGGGSGGGGSGGGGSLQMAGQCSQNEYFDSLLYACIPCQLRCSSNTPPLTCQRYCNASVTNSVKGTNAGSGGGGSEPKSSDKTHTCPPCPAPEAEGAPSVFLFPPKPKDTLMISRTPEVTCVVVDVSHEDPEVKFNWYVDGVEVHNAKTKPREEQYNSTYRVVSVLTVLHQDWLNGKEYKCKVSNKALPAPIEKTISKAKGQPREPQVYTLPPSRDELTKNQVSLTCLVKGFYPSDIAVEWESNGQPENNYKTTPPVLDSDGSFFLYSKLTVDKSRWQQGNVFSCSVMHEALHNHYTQKSLSLSPG | 3.75 nM | 0.63 nM | 3.8 ratio | 0.6 ratio |  |  |  | 
8 | CTLA-4 92 GSG4S Fc (G4S)5 BCMA 357 (Fc fusion) KAMHVAQPAVVLASSRGIASFVCEYASPWKATEVRVTVLRQADSQVTEVCAATYMMGSELTFPDDSICTGTSSGNQVNLTIRGLRAMDTGLYICKVEQMYPPPYLLGIGNGTQIYVIDPEPCPDSDGSGGGGSEPKSSDKTHTCPPCPAPEAEGAPSVFLFPPKPKDTLMISRTPEVTCVVVDVSHEDPEVKFNWYVDGVEVHNAKTKPREEQYNSTYRVVSVLTVLHQDWLNGKEYKCKVSNKALPAPIEKTISKAKGQPREPQVYTLPPSRDELTKNQVSLTCLVKGFYPSDIAVEWESNGQPENNYKTTPPVLDSDGSFFLYSKLTVDKSRWQQGNVFSCSVMHEALHNHYTQKSLSLSPGGGGGSGGGGSGGGGSGGGGSGGGGSLQMAGQCSQNEYFDSLLYACIPCQLRCSSNTPPLTCQRYCNASVTNSVKGTNA | 0.765 nM | 0.687 nM | 0.8 ratio | 0.7 ratio |  |  |  | 
9 | BCMA 357 (G4S)3 CTLA-4 92 GSG4S Fc (Fc fusion) LQMAGQCSQNEYFDSLLYACIPCQLRCSSNTPPLTCQRYCNASVTNSVKGTNAGGGGSGGGGSGGGGSGGGGSKAMHVAQPAVVLASSRGIASFVCEYASPWKATEVRVTVLRQADSQVTEVCAATYMMGSELTFPDDSICTGTSSGNQVNLTIRGLRAMDTGLYICKVEQMYPPPYLLGIGNGTQIYVIDPEPCPDSDGSGGGGSEPKSSDKTHTCPPCPAPEAEGAPSVFLFPPKPKDTLMISRTPEVTCVVVDVSHEDPEVKFNWYVDGVEVHNAKTKPREEQYNSTYRVVSVLTVLHQDWLNGKEYKCKVSNKALPAPIEKTISKAKGQPREPQVYTLPPSRDELTKNQVSLTCLVKGFYPSDIAVEWESNGQPENNYKTTPPVLDSDGSFFLYSKLTVDKSRWQQGNVFSCSVMHEALHNHYTQKSLSLSPG | 0.396 nM | 0.689 nM | 0.4 ratio | 0.7 ratio |  |  |  | 
10 | CTLA-4 186GSG4S-Fc-(G4S)4-BCMA 381 (Fc fusion) KAMHVAQPAVVLASSRGIASFVCEYASPWKATEVRVTVLRQADSQVTEVCAATYMMGNELTFLDDSICTGTSSGNQVNLTIQGLRAMDTGLYICKVEQMYPPPYLLGIGNGTQIYVIDPEPCPDSDGSGGGGSEPKSSDKTHTCPPCPAPEAEGAPSVFLFPPKPKDTLMISRTPEVTCVVVDVSHEDPEVKFNWYVDGVEVHNAKTKPREEQYNSTYRVVSVLTVLHQDWLNGKEYKCKVSNKALPAPIEKTISKAKGQPREPQVYTLPPSRDELTKNQVSLTCLVKGFYPSDIAVEWESNGQPENNYKTTPPVLDSDGSFFLYSKLTVDKSRWQQGNVFSCSVMHEALHNHYTQKSLSLSPGGGGGSGGGGSGGGGSGGGGSLQMAGQCSQNEYFDALLYACIPCQLRCSSNTPPLTCQQYCNASVTNSVKGTNA | 0.282 nM | 1.27 nM |  |  | 26.1 nM | 11.9 nM | 0.8 ratio | 1.5 ratio
